Laboratory results: the Human Domainome abundance scans (Beltran et al. 2025)
± gives the uncertainty stated by the source.

B1: Cyclin-F, residues 28 to 80; numbered along this chain, P41002 (parent)
chain: RNLTILSLPEDVLFHILKWLSVEDILAVRAVHSQLKDLVDNHASVWACASFQE

Variants of: B1
Assay: abundance fitness (aPCA) (normalised: wild type 0, dead -1); higher = more abundant; growth selection in yeast, the domain comes from the species named
Conditions: Homo sapiens

Row | Variant | abundance fitness
1 | RNLTILSLPEDVLFHILKWLSVEDILAVRAVHSQLKDLVDNHASVWACASFYE | -0.382 ± 0.24
2 | RNLTILSLPEDVLFHILKWLSVEDILAVRAVHSQLKDLVDNHASVWACASFME | -0.256 ± 0.29
3 | RNLTILSLPEDVLFHILKWLSVEDILAVRAVHSQLKDLVDNHASVWACASFQC | -0.527 ± 0.41
4 | RNLTILSLPEDVLFHILKWLSVEDILAVRAVHSQLKDLVDNHASVWACASFQG | -0.069 ± 0.13
5 | RNLTILSLPEDVLFHILKWLSVEDILAVRAVHSQLKDLVDNHASVWACASFQD | -0.178 ± 0.33
6 | RNLTILSLPEDVLFHILKWLSVEDILAVRAVHSQLKDLVDNHASVWACASFQA | -0.151 ± 0.17
7 | RNLTILSLPEDVLFHILKWLSVEDILAVRAVHSQLKDLVDNHASVWACASFQF | -0.582 ± 0.42
8 | RNLTILSLPEDVLFHILKWLSVEDILAVRAVHSQLKDLVDNHASVWHCASFQE | -0.29 ± 0.26
9 | RNLTILSLPEDVLFHILKWLSVEDILAVRAVHSQLKDLVDNHASVWYCASFQE | -0.458 ± 0.23
10 | RNLTILSLPEDVLFHILKWLSVEDILAVRAVHSQLKDLVDNHASVWGCASFQE | 0.193 ± 0.08
11 | RNLTILSLPEDVLFHILKWLSVEDILAVRAVHSQLKDLVDNHASVWTCASFQE | -0.43 ± 0.15
12 | RNLTILSLPEDVLFHILKWLSVEDILAVRAVHSQLKDLVDNHASVWICASFQE | -0.178 ± 0.23
13 | RNLTILSLPEDVLFHILKWLSVEDILAVRAVHSQLKDLVDNHASVWNCASFQE | -0.088 ± 0.21
14 | RNLTILSLPEDVLFHILKWLSVEDILAVRAVHSQLKDLVDNHASVWKCASFQE | -0.181 ± 0.16
15 | RNLTILSLPEDVLFHILKWLSVEDILAVRAVHSQLKDLVDNHASVWRCASFQE | -0.14 ± 0.094
16 | RNLTILSLPEDVLFHILKWLSVEDILAVRAVHSQLKDLVDNHASVWLCASFQE | -0.235 ± 0.096
17 | RNLTILSLPEDVLFHILKWLSVEDILAVRAVHSQLKDLVDNHASVWSCASFQE | -0.114 ± 0.13
18 | RNLTILSLPEDVLFHILKWLSVEDILAVRAVHSQLKDLVDNHASVWVCASFQE | -0.513 ± 0.12
19 | RNLTILSLPEDVLFHILKWLSVEDILAVRAVHSQLKDLVDNHASVWFCASFQE | 0.386 ± 0.18
20 | RNLTILSLPEDVLFHILKWLSVEDILAVRAVHSQLKDLVDNHASVWMCASFQE | -0.095 ± 0.13
21 | RNLTILSLPEDVLFHILKWLSVEDILAVRAVHSQLKDLVDNHASVWWCASFQE | -0.374 ± 0.12
22 | RNLTILSLPEDVLFHILKWLSVEDILAVRAVHSQLKDLVDNHASVWACAVFQE | -0.621 ± 0.14
23 | RNLTILSLPEDVLFHILKWLSVEDILAVRAVHSQLKDLVDNHASVWACAWFQE | -0.434 ± 0.098
24 | RNLTILSLPEDVLFHILKWLSVEDILAVRAVHSQLKDLVDNHASVWACAPFQE | -0.1 ± 0.12
25 | RNLTILSLPEDVLFHILKWLSVEDILAVRAVHSQLKDLVDNHASVWACAMFQE | -0.483 ± 0.17

Row | Variant | abundance fitness
26 | RNLTILSLPEDVLFHILKWLSVEDILAVRAVHSQLKDLVDNHASVWACADFQE | 0.029 ± 0.14
27 | RNLTILSLPEDVLFHILKWLSVEDILAVRAVHSQLKDLVDNHASVWACAKFQE | -0.03 ± 0.13
28 | RNLTILSLPEDVLFHILKWLSVEDILAVRAVHSQLKDLVDNHASVWACALFQE | -0.485 ± 0.099
29 | RNLTILSLPEDVLFHILKWLSVEDILAVRAVHSQLKDLVDNHASVWACAFFQE | -0.668 ± 0.11
30 | RNLTILSLPEDVLFHILKWLSVEDILAVRAVHSQLKDLVDNHASVWACAQFQE | 0.105 ± 0.12
31 | RNLTILSLPEDVLFHILKWLSVEDILAVRAVHSQLKDLVDNHASVWACANFQE | -0.394 ± 0.27
32 | RNLTILSLPEDVLFHILKWLSVEDILAVRAVHSQLKDLVDNHASVWACATFQE | -0.166 ± 0.13
33 | RNLTILSLPEDVLFHILKWLSVEDILAVRAVHSQLKDLVDNHASVWACAHFQE | -0.319 ± 0.16
34 | RNLTILSLPEDVLFHILKWLSVEDILAVRAVHSQLKDLVDNHASVWACAEFQE | -0.114 ± 0.16
35 | RNLTILSLPEDVLFHILKWLSVEDILAVRAVHSQLKDLVDNHASVWACAYFQE | -0.369 ± 0.2
36 | RNLTILSLPEDVLFHILKWLSVEDILAVRAVHSQLKDLVDNHASVWACASLQE | 0.092 ± 0.096
37 | RNLTILSLPEDVLFHILKWLSVEDILAVRAVHSQLKDLVDNHASVWACASGQE | -0.158 ± 0.079
38 | RNLTILSLPEDVLFHILKWLSVEDILAVRAVHSQLKDLVDNHASVWACASHQE | -0.123 ± 0.31
39 | RNLTILSLPEDVLFHILKWLSVEDILAVRAVHSQLKDLVDNHASVWACASPQE | -0.184 ± 0.15
40 | RNLTILSLPEDVLFHILKWLSVEDILAVRAVHSQLKDLVDNHASVWACASVQE | -0.034 ± 0.083
41 | RNLTILSLPEDVLFHILKWLSVEDILAVRAVHSQLKDLVDNHASVWACASWQE | -0.279 ± 0.13
42 | RNLTILSLPEDVLFHILKWLSVEDILAVRAVHSQLKDLVDNHASVWACASMQE | 0.085 ± 0.11
43 | RNLTILSLPEDVLFHILKWLSVEDILAVRAVHSQLKDLVDNHASVWACASTQE | -0.014 ± 0.11
44 | RNLTILSLPEDVLFHILKWLSVEDILAVRAVHSQLKDLVDNHASVWACASEQE | -0.38 ± 0.14
45 | RNLTILSLPEDVLFHILKWLSVEDILAVRAVHSQLKDLVDNHASVWACASKQE | -0.202 ± 0.18
46 | RNLTILSLPEDVLFHILKWLSVEDILAVRAVHSQLKDLVDNHASVWACASIQE | -0.111 ± 0.17
47 | RNLTILSLPEDVLFHILKWLSVEDILAVRAVHSQLKDLVDNHASVWACASRQE | -0.187 ± 0.09
48 | RNLTILSLPEDVLFHILKWLSVEDILAVRAVHSQLKDLVDNHASVWACASSQE | -0.194 ± 0.11
49 | RNLTILSLPEDVLFHILKWLSVEDILAVRAVHSQLKDLVDNHASVWACASYQE | -0.215 ± 0.24
50 | RNLTILSLPEDVLFHILKWLSVEDILAVRAVHSQLKDLVDNHASVWACASAQE | -0.138 ± 0.091
